Results on 66 substances are retold here after the Human Domainome abundance scans (Beltran et al. 2025).

± gives the uncertainty stated by the source.

This data set in a line: abundance fitness (aPCA) (normalised: wild type 0, dead -1); higher = more abundant; growth selection in yeast, the domain comes from the species named. Particulars: Homo sapiens.
Turning to “SAFB-like transcription modulator K20V, Q9NWH9”, the abundance fitness is -0.252 ± 0.072.
For “SAFB-like transcription modulator K20W, Q9NWH9” the value was -0.284 ± 0.095; for “SAFB-like transcription modulator K20Y, Q9NWH9”, -0.454 ± 0.3; for “SAFB-like transcription modulator K21A, Q9NWH9”, -0.182 ± 0.033.
“SAFB-like transcription modulator K21C, Q9NWH9” returned an abundance fitness of -0.203 ± 0.058.
For the substance “SAFB-like transcription modulator K21E, Q9NWH9”, the abundance fitness was -0.195 ± 0.064.
For “SAFB-like transcription modulator K21F, Q9NWH9” the value was -0.349 ± 0.077.
As for “SAFB-like transcription modulator K21G, Q9NWH9”, the figure is -0.265 ± 0.046; as for “SAFB-like transcription modulator K21H, Q9NWH9”, -0.33 ± 0.091; as for “SAFB-like transcription modulator K21L, Q9NWH9”, -0.324 ± 0.041.
As for “SAFB-like transcription modulator K21N, Q9NWH9”, the figure is -0.491 ± 0.094; as for “SAFB-like transcription modulator K21P, Q9NWH9”, -0.312 ± 0.057.
In the case of “SAFB-like transcription modulator K21Q, Q9NWH9”, the abundance fitness was -0.336 ± 0.052.
As for “SAFB-like transcription modulator K21S, Q9NWH9”, the figure is -0.198 ± 0.056.
For “SAFB-like transcription modulator K21T, Q9NWH9” the value was -0.355 ± 0.064.
“SAFB-like transcription modulator K21V, Q9NWH9” displayed an abundance fitness of -0.375 ± 0.04.
As for “SAFB-like transcription modulator K21W, Q9NWH9”, the figure is -0.982 ± 0.12; as for “SAFB-like transcription modulator K21Y, Q9NWH9”, -0.667 ± 0.076.
For “SAFB-like transcription modulator K31A, Q9NWH9” the value was -0.352 ± 0.049; for “SAFB-like transcription modulator K31C, Q9NWH9”, -0.223 ± 0.06.
As for “SAFB-like transcription modulator K31E, Q9NWH9”, the figure is -0.219 ± 0.062; as for “SAFB-like transcription modulator K31F, Q9NWH9”, -0.288 ± 0.037.
Take “SAFB-like transcription modulator K31G, Q9NWH9”: the abundance fitness was -0.859 ± 0.038.
For “SAFB-like transcription modulator K31H, Q9NWH9” the value was -0.102 ± 0.083; for “SAFB-like transcription modulator K31I, Q9NWH9”, 0.131 ± 0.064; for “SAFB-like transcription modulator K31L, Q9NWH9”, -0.155 ± 0.042.
As for “SAFB-like transcription modulator K31M, Q9NWH9”, the figure is -0.241 ± 0.068.
The substance “SAFB-like transcription modulator K31N, Q9NWH9” displayed an abundance fitness of -0.629 ± 0.075.
In turn, “SAFB-like transcription modulator K31P, Q9NWH9” displayed an abundance fitness of -1.16 ± 0.075.
In turn, “SAFB-like transcription modulator K31Q, Q9NWH9” gave an abundance fitness of -0.069 ± 0.075.
As for “SAFB-like transcription modulator K31R, Q9NWH9”, the figure is -0.184 ± 0.047.
“SAFB-like transcription modulator K31S, Q9NWH9” registered an abundance fitness of -0.613 ± 0.061.
The substance “SAFB-like transcription modulator K31T, Q9NWH9” registered an abundance fitness of -0.143 ± 0.043.
Take “SAFB-like transcription modulator K31V, Q9NWH9”: the abundance fitness was -0.056 ± 0.053.
As for “SAFB-like transcription modulator K31W, Q9NWH9”, the abundance fitness was -0.237 ± 0.053.
As for “SAFB-like transcription modulator K31Y, Q9NWH9”, the figure is -0.213 ± 0.075; as for “SAFB-like transcription modulator K35A, Q9NWH9”, -0.08 ± 0.072.
As for “SAFB-like transcription modulator K35C, Q9NWH9”, the figure is -0.528 ± 0.23; as for “SAFB-like transcription modulator K35D, Q9NWH9”, -0.046 ± 0.097.
As for “SAFB-like transcription modulator K35E, Q9NWH9”, the figure is -0.013 ± 0.083; as for “SAFB-like transcription modulator K35F, Q9NWH9”, -0.267 ± 0.17.
Consider “SAFB-like transcription modulator K35G, Q9NWH9”, for which the abundance fitness amounted to 0.023 ± 0.051.
As for “SAFB-like transcription modulator K35I, Q9NWH9”, the figure is -0.067 ± 0.037; as for “SAFB-like transcription modulator K35L, Q9NWH9”, -0.44 ± 0.11.
As for “SAFB-like transcription modulator K35M, Q9NWH9”, the figure is -0.035 ± 0.079; as for “SAFB-like transcription modulator K35P, Q9NWH9”, -0.943 ± 0.14.
For “SAFB-like transcription modulator K35Q, Q9NWH9” the value was 0.052 ± 0.053; for “SAFB-like transcription modulator K35R, Q9NWH9”, -0.023 ± 0.041; for “SAFB-like transcription modulator K35S, Q9NWH9”, -0.034 ± 0.07.
Take “SAFB-like transcription modulator K35T, Q9NWH9”: the abundance fitness was -0.474 ± 0.13.
For the substance “SAFB-like transcription modulator K35V, Q9NWH9”, the abundance fitness is -0.11 ± 0.042.
For “SAFB-like transcription modulator K35W, Q9NWH9” the value was -0.163 ± 0.077.
For “SAFB-like transcription modulator K35Y, Q9NWH9” the value was -0.086 ± 0.37; for “SAFB-like transcription modulator K45A, Q9NWH9”, -0.224 ± 0.068.
Substance “SAFB-like transcription modulator K45C, Q9NWH9” yielded an abundance fitness of -0.617 ± 0.052.
Turning to “SAFB-like transcription modulator K45D, Q9NWH9”, the abundance fitness was -0.208 ± 0.037.
For “SAFB-like transcription modulator K45E, Q9NWH9” the value was -0.096 ± 0.038; for “SAFB-like transcription modulator K45F, Q9NWH9”, -0.55 ± 0.037; for “SAFB-like transcription modulator K45G, Q9NWH9”, -0.2 ± 0.066.
For “SAFB-like transcription modulator K45H, Q9NWH9”, the abundance fitness is -0.372 ± 0.12.
With “SAFB-like transcription modulator K45I, Q9NWH9”, the abundance fitness was -0.513 ± 0.079.
As for “SAFB-like transcription modulator K45L, Q9NWH9”, the figure is -0.731 ± 0.056; as for “SAFB-like transcription modulator K45M, Q9NWH9”, -0.325 ± 0.076; as for “SAFB-like transcription modulator K45N, Q9NWH9”, -0.334 ± 0.086.
As for “SAFB-like transcription modulator K45P, Q9NWH9”, the figure is -0.194 ± 0.077.
As for “SAFB-like transcription modulator K45Q, Q9NWH9”, the figure is -0.099 ± 0.084.
